From publication PMC5389579

Target: SSRP1 (Flag) (human, UniProt Q08945 1-709)
Experiment: EMSA

SSRP1 (Flag), sequence (Q08945 whole entry): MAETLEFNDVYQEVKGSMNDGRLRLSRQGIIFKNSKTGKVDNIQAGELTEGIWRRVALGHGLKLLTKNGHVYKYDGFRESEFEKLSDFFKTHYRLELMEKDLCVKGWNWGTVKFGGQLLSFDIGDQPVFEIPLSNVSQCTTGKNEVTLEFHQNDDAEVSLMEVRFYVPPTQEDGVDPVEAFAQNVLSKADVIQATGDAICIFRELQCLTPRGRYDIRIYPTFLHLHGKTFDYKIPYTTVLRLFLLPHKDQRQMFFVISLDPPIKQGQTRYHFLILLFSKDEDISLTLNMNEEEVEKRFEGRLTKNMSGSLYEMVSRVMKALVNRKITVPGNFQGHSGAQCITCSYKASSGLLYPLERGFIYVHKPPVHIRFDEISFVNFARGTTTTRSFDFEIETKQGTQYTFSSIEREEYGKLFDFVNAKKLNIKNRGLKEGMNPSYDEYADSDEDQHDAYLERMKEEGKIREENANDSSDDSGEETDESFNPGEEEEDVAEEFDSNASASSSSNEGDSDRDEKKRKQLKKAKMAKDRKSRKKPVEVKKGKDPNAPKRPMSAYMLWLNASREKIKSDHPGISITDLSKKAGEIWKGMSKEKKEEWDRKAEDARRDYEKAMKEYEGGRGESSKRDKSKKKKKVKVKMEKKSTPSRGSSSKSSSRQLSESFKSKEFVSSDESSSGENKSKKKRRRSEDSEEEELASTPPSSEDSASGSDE

B1: AC probe (dsDNA)
DNA 1: ACACACACACACACACACACACACACACACACACAC
DNA 2: GTGTGTGTGTGTGTGTGTGTGTGTGTGTGTGTGTGT
- binding result: binds
